± gives the uncertainty stated by the source.
B1: POU domain, class 2, transcription factor 1, residues 285 to 354; numbered along this chain, P14859 (parent)
chain: LEELEQFAKTFKQRRIKLGFTQGDVGLAMGKLYGNDFSQTTISRFEALNLSFKNMCKLKPLLEKWLNDAE

Variants of: B1
Experiment: abundance fitness (aPCA) (normalised: wild type 0, dead -1); higher = more abundant; growth selection in yeast, the domain comes from the species named
Conditions: Homo sapiens

Variant	abundance fitness
LEELEQFAKTFKQRRIKLGFTQGDVGLAMDKLYGNDFSQTTISRFEALNLSFKNMCKLKPLLEKWLNDAE [G30D]	-0.087 ± 0.059
LEELEQFAKTFKQRRIKLGFTQGDVGLAMGKLYGNDFSQTTISRFEALNLSFKNMCYLKPLLEKWLNDAE [K57Y]	0.031 ± 0.028
LEELEQFAKTFKQRRIKLGFTQGDVGLAMGKLYGNDFSQTTISRFEALNLSFKNMCQLKPLLEKWLNDAE [K57Q]	-0.018 ± 0.032
LEELEQFAKTFKQRRIKLGFTQGDVGLAMGKLYGNDFSQTTISRFEALNLSFKNMCKLKTLLEKWLNDAE [P60T]	-0.08 ± 0.036
LEELEQFAKTFKQRRIKLGFTQGDVGLAMGKLYGNDFSQTTISRFEALNLSFKNMCKLKRLLEKWLNDAE [P60R]	-0.107 ± 0.026
LEELEQFAKTFKQRYIKLGFTQGDVGLAMGKLYGNDFSQTTISRFEALNLSFKNMCKLKPLLEKWLNDAE [R15Y]	-0.387 ± 0.12
LEELEQFAKTFKQRRIKLGFTQGDVGLAMGKLYGNDFSQTTISRFEALNLSFKNMCKLKPLTEKWLNDAE [L62T]	-0.406 ± 0.041
LEELEQFAKTFKQRRIKLGFTQGDVGLNMGKLYGNDFSQTTISRFEALNLSFKNMCKLKPLLEKWLNDAE [A28N]	-0.061 ± 0.03
LEELEQFAKTFKQRRIKLGFTQGDVGLAMGKLYGNDFSQTTISRFEALNLSFKNMMKLKPLLEKWLNDAE [C56M]	0.034 ± 0.064
LEELEQFAKTFKQRRIKLGFTQGDVGLAMGKLYGNDFSQTTISRFEALNLSFKNMSKLKPLLEKWLNDAE [C56S]	0.032 ± 0.022
LEELEQFAKTFKQRRIKLGFTQGYVGLAMGKLYGNDFSQTTISRFEALNLSFKNMCKLKPLLEKWLNDAE [D24Y]	-0.164 ± 0.045
LEELEQFAKTFKQWRIKLGFTQGDVGLAMGKLYGNDFSQTTISRFEALNLSFKNMCKLKPLLEKWLNDAE [R14W]	-0.296 ± 0.35
LEELEQFAKTFKQRRIKLGFTQRDVGLAMGKLYGNDFSQTTISRFEALNLSFKNMCKLKPLLEKWLNDAE [G23R]	-0.071 ± 0.047
LEELEQFAKTFKQRRIKLGFTQTDVGLAMGKLYGNDFSQTTISRFEALNLSFKNMCKLKPLLEKWLNDAE [G23T]	-0.004 ± 0.025
LEELEQFAKTFKQRRIKLGFTQADVGLAMGKLYGNDFSQTTISRFEALNLSFKNMCKLKPLLEKWLNDAE [G23A]	0.025 ± 0.042
LEELEQFAKTFKQRRIKLGFTQGDVGLAMGKLYGNDFSQWTISRFEALNLSFKNMCKLKPLLEKWLNDAE [T40W]	-0.054 ± 0.049
LEELEQFAKTFKQRRIKLGFTQGDVGLAMGKLYGNDFSQKTISRFEALNLSFKNMCKLKPLLEKWLNDAE [T40K]	-0.071 ± 0.087
LEELEQFAKTFKQRRIKLGFTQGDVGDAMGKLYGNDFSQTTISRFEALNLSFKNMCKLKPLLEKWLNDAE [L27D]	-0.136 ± 0.07
LEELEQFAKTFKQRRIKLGFTQGDVGLAMGKLYGNDFSQTTISRFEALQLSFKNMCKLKPLLEKWLNDAE [N49Q]	0.007 ± 0.036

Variant	abundance fitness
LEELEQFAKTFKQRRIKLGFTQGDVGLAMGKLYGNDFSQTTISRFEALDLSFKNMCKLKPLLEKWLNDAE [N49D]	0.033 ± 0.21
LEELEQFAKTFKQRRIKLGFTQGDVGLAMGKLYGNDYSQTTISRFEALNLSFKNMCKLKPLLEKWLNDAE [F37Y]	-0.135 ± 0.068
LEELEQFAKTFKQRRIKLGFTQGDVGLAMGKLYGNDISQTTISRFEALNLSFKNMCKLKPLLEKWLNDAE [F37I]	-0.011 ± 0.035
LEELIQFAKTFKQRRIKLGFTQGDVGLAMGKLYGNDFSQTTISRFEALNLSFKNMCKLKPLLEKWLNDAE [E5I]	-0.1 ± 0.08
LEELEQFAKTFKQRRIKLGFTQGDVGLAMGKLYGNDFSQTTISRFEALNLSFKNMCKLKPLLEKWHNDAE [L66H]	-0.474 ± 0.11
LEELEQFAKTFKQRRIKLGFTQGDVGLAMGKLYGNDFSQTTISRFEALNLSFKNMCKLKPLLEKGLNDAE [W65G]	-0.555 ± 0.033
LEELEQFAKTFKQRRIKLGFTQGDVGLAMGKLYGNDFSQTTISRFEALNLSFKNMCKLKPLLEKELNDAE [W65E]	-0.825 ± 0.081
LEELEQFAKTFKQRRIKLGFTQGDVGLAMGKLYGNDFSQTTISRFEALNLSFKNMCKLKPLLEKDLNDAE [W65D]	-0.968 ± 0.17
LEELEQFAKTFKQRRIKLGFTQGDVGLAMGKLYGNDFSQTTINRFEALNLSFKNMCKLKPLLEKWLNDAE [S43N]	0.005 ± 0.18
LEELEQFAKTFKQRRIKLGFTQGDVGLAMGKLYGNDFSQTTIGRFEALNLSFKNMCKLKPLLEKWLNDAE [S43G]	-0.156 ± 0.16
LEELEQFAKTSKQRRIKLGFTQGDVGLAMGKLYGNDFSQTTISRFEALNLSFKNMCKLKPLLEKWLNDAE [F11S]	-0.206 ± 0.035
LEELEQFAKTFKWRRIKLGFTQGDVGLAMGKLYGNDFSQTTISRFEALNLSFKNMCKLKPLLEKWLNDAE [Q13W]	-0.188 ± 0.035
LEELEQFAKTFKRRRIKLGFTQGDVGLAMGKLYGNDFSQTTISRFEALNLSFKNMCKLKPLLEKWLNDAE [Q13R]	-0.061 ± 0.042
LEELEQFAKTFKQRRIKLGFTQGDVGLAMGKLYGIDFSQTTISRFEALNLSFKNMCKLKPLLEKWLNDAE [N35I]	0.03 ± 0.1
LEELEQFAKTFKQRRIKLGFTQGDVGLAMGKLYGADFSQTTISRFEALNLSFKNMCKLKPLLEKWLNDAE [N35A]	-0.011 ± 0.019
LEELEQFAKTFKQRRIKLGFTQGDVGLAMGKLYGKDFSQTTISRFEALNLSFKNMCKLKPLLEKWLNDAE [N35K]	0.006 ± 0.022
LEELEQFAKTFKQRRIKLGFTQGDVGLAMGKLYGNDFSQTTISRFEALNQSFKNMCKLKPLLEKWLNDAE [L50Q]	-0.207 ± 0.03
LEELEQFAKTFKQRRIKLGFTQGDVGLAMGKLYGNDFSQTTISRFEALNRSFKNMCKLKPLLEKWLNDAE [L50R]	-0.738 ± 0.023
LEELEQFAKTFKQRRIKLGFTQGDVGLAMGKLYGNDFSQTTISRFEAFNLSFKNMCKLKPLLEKWLNDAE [L48F]	-0.054 ± 0.039

Source: the Human Domainome abundance scans (Beltran et al. 2025)
